Source: paper doi:10.1101/2024.10.06.616851

Biological target: intracellular (IC) wildtype penton of ASFV, HA-tagged (African swine fever virus (ASFV) Georgia 2007/1) (UniProt Q65190)
Assay: non-reducing SDS-PAGE with Western blot

Question: “intracellular (IC) wildtype penton of ASFV, HA-tagged (from UniProt Q65190 1-240) (natural protein)” was tested. Which percent pentamer did it give?
Answer: Its percent pentamer is 30%.

Question: And the stoichiometry N?
Answer: Its stoichiometry N is 5.
